Data on 1 sequence can be found in paper PMC3764193.

The target in this data set is T1, recombinant (His)6-Bwc2 (Cryptococcus neoformans var. neoformans JEC21) (UniProt Q5EGQ1).
T1 sequence: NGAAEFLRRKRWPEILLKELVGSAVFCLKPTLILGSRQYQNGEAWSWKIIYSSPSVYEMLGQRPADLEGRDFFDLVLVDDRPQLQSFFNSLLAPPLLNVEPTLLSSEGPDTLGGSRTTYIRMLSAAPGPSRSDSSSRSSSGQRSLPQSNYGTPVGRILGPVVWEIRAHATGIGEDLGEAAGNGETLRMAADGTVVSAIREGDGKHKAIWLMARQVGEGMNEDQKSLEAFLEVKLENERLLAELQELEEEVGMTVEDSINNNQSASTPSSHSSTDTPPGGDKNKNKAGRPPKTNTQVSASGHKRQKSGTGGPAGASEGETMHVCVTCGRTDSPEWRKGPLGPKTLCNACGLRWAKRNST
Description: EMSA. As to conditions: 1X EMSA buffer (from 5X: 20% w/v glycerol, 5 mM MgCl2, 250 mM NaCl, 2.5 mM EDTA pH 8, 10 mM DTT, +/-12 uM ZnSO4) + 1X phosphate buffer, 20 ul; 20 min …. Background: In EMSA bound probe runs differently from free probe, usually more slowly.

As to “GTAGTCACCAGTCATTCAGTTACTCTGTTATGACGTGACGTCGTTACTCTCGATCTTCATCTCGATCTCCACCTTGCAAGCTTTTCAGGCTTTTTACTCATCGTTCACTATATAATACGATACCACACTTGACATTTCTTCGGTATGTATAAAACGCAGTCGCGAGTACTTCCTTCTGCTTTTGCAACAAACACGTCTGCATTTGTTGCCAAGTATTTATATCAGCATTAAGTACATGAGGTTC (double strand) [P1 (UVE1 promoter)]”, the binding entry is “binds”.
